Experimental data from US20170212130A1.

Target: S. cerevisiae Nup84-GFP (S. cerevisiae) (UniProt P52891)
Experiment: signal to noise ratio of Coomassie bands, Nup84-GFP affinity isolation on LaG-Dynabeads

B1: LaG-8 (VHH)
VHH: QVQLVESGGGLVQHGGSLRLSCVTSGFTFDIHDMGWFRQAPGKERDIVARISKSGDITYYADSVKGRFIISRDNTKNTVYLQMNSLKPEDTAVYYCAATLRATITSFDEYVYRGQGTQVTVS
Nup84-GFP S:N: 0.1
